{
  "source": "paper PMC12737151",
  "about": "“Systematic Development and Characterization of Enzyme-Free, Borax-Crosslinked Microneedles for Glucose-Responsive Insulin Delivery and In Vivo Glycemic Mitigation” (Pharmaceutics, 2025)",
  "key": {"[1]": {"tested_on": "STZ-diabetic mice", "design": "species or system C57BL/6J mice", "conditions": "mouse, in vivo; SD", "description": "(§1) Male C57BL/6J mice, 56–70 days old (8–10 weeks) and weighing 23–28 g at allocation, were housed under standard conditions with ad libitum access to food and water. Type 1 diabetes was induced by intraperitoneal streptozotocin (55 mg kg^−1 daily for 5 days). Mice with fasting plasma glucose (FPG) > 300 mg·dL^−1 were considered diabetic and enrolled. […] Animals were randomized to groups with allocation concealment; outcome assessors were blinded to treatment. […] Animals were housed at 22 ± 2 °C, 45–65% RH under a 12 h light/12 h dark cycle with environmental enrichment (nesting material), standard chow and water ad libitum. For blood sampling and patch application, brief isoflurane anesthesia was used (Materials). Humane endpoints: >20% body-weight loss from baseline, persistent FPG > 600 mg·dL^−1 despite treatment, or any severe distress prompted euthanasia per IACUC policy.\nPatches were applied to a shaved dorsal skin site and secured with a semi-occlusive film. […] The nominal dose was calculated based on this area ratio:[Nominal IU per mini-patch] = (Mean IU per full patch) × (mini-patch area/full patch active area).\nAn intravenous glucose-tolerance test (IVGTT) was performed 2–4 h post-application by administering an IV bolus of dextrose (0.7 g·kg^−1). PGL and plasma insulin were monitored for 0–60 min post-bolus."}, "[2]": {"tested_on": "STZ-diabetic mice", "assay": "Intraperitoneal glucose-tolerance test (IPGTT)", "assay_type": "in vivo, C57BL/6J mice", "conditions": "30 min after 1.5 g·kg^−1 glucose i.p., 4 h post-treatment, mean ± SD, n = 8", "description": "Male C57BL/6J mice, 56–70 days old (8–10 weeks) and weighing 23–28 g at allocation, were housed under standard conditions with ad libitum access to food and water. Type 1 diabetes was induced by intraperitoneal streptozotocin (55 mg kg^−1 daily for 5 days). Mice with fasting plasma glucose (FPG) > 300 mg·dL^−1 were considered diabetic and enrolled. […] Animals were randomized to groups with allocation concealment; outcome assessors were blinded to treatment. […] For blood sampling and patch application, brief isoflurane anesthesia was used (Materials).\nPatches were applied to a shaved dorsal skin site and secured with a semi-occlusive film. The nominal dose for mouse studies (0.05–0.20 IU) was delivered using “mini-patches” (Ø 3–5 mm) punched from larger, fully characterized patches (Ø 15 mm). The nominal dose was calculated based on this area ratio:[Nominal IU per mini-patch] = (Mean IU per full patch) × (mini-patch area/full patch active area).\nIPGTT. An intraperitoneal glucose-tolerance test (IPGTT) was performed 4 h post-application by administering an IP bolus of glucose (1.5 g·kg^−1). PGL and plasma insulin were monitored for 0–120 min, and the AUC0–120 was calculated."}, "[3]": {"conditions": "mouse, in vivo; SD", "description": "Terminal blood (or blood under anesthesia where permitted) was collected into\nserum tubes, allowed to clot for 20–30 min at room temperature, and\ncentrifuged at 2,000 g for 10 min. Serum was analyzed the same day on an\nautomated clinical chemistry analyzer available in our facility (reagent kits\nfrom Thermo Fisher Scientific, Waltham, MA, USA, or Roche Diagnostics,\nIndianapolis, IN, USA, as applicable), or stored at 4 °C for <6 h before testing.\nLaboratory reference intervals for C57BL/6J were considered during\ninterpretation: AST 35–80 U·L⁻¹, ALT 25–60 U·L⁻¹, urea 5–9 mmol·L⁻¹, and\ncreatinine 25–60 µmol·L⁻¹ (ranges may vary by laboratory). Hemolyzed\nsamples were excluded per pre-specified criteria. Statistical analyses followed\nthe main text (normality by Shapiro–Wilk, variance homogeneity by Levene,\none-way ANOVA with Tukey post hoc; α = 0.05)."}, "[4]": {"design": "species or system C57BL/6J mice", "conditions": "mouse, in vivo; SD", "method": "Pharmacokinetics. Serial blood samples were collected following sI-MN application or SC insulin dosing. Plasma insulin concentrations were quantified by ELISA (4-PL; appropriate plasma dilution; internal QCs and spike-recovery within 80–120%). Noncompartmental analysis (NCA) yielded Cmax, tmax, and AUC over the reported interval, and terminal half-life (t1/2). […] AUCs were calculated by the linear-up/linear-down trapezoidal rule.\npatches (related to Section 2.2.3).\nMechanical Robustness — Single-Needle Fracture\ncompression at constant speed. Fracture point was identified from force–\ndisplacement traces. Per-array mean ± SD and overall CV were computed.\nICC(1,1) (related to Section 2.2.4).\nELISA Validation — Patch Extract Matrices\nELISA sample diluent to fall within the validated range. For in-vitro release,\ncorner wells avoided to minimize edge effects. Carryover was checked by\nplacing an LLOQ well immediately after the ULOQ well. Matrix effect and\n120% recovery and CV ≤15% (≤20% at LLOQ). Content (IU per patch) was\nhuman insulin (≈28.8 IU·mg⁻¹). All ELISA-derived masses were converted\naccordingly before IU normalizatio. Uniformity was summarized as mean ±\nELISA Validation — Mouse Plasma (PK)\ninverted, and kept on wet ice.\nspecified visual criterion) were excluded. Samples were diluted 1:5–1:20 in kit\nSelectivity against endogenous\nmouse insulin was ensured per manufacturer documentation (cross-reactivity\n<0.1%) and confirmed by blank plasma < LLOQ. Stability was verified for\n14 days (≥90%). PK outputs per animal included observed Cmax, Tmax, AUC₀–\nregression), and t½ = ln2/λz.\nICP–MS Validation — Boron Leaching\nVentures (Christiansburg, VA, USA). External calibration used 0–100 µg·L⁻¹\nstandards (matrix-matched), with R² ≥ 0.99 required. A rinse of 2% HNO₃ for\ndaily for five consecutive days.\ndose and prior to glycemic assessments as applicable. Fasting plasma glucose\nwere excluded per pre-specified rules. All animal procedures complied with\nand conformed to ARRIVE guidelines."}, "[5]": {"tested_on": "STZ-diabetic mice", "assay": "Baseline efficacy 0–12 h: plasma glucose and plasma insulin", "assay_type": "in vivo, C57BL/6J mice", "conditions": "basal monitoring, mean ± SD, n = 8", "description": "as §1\nTreatments and Dosing. […] The nominal dose was calculated based on this area ratio:[Nominal IU per mini-patch] = (Mean IU per full patch) × (mini-patch area/full patch active area).\nBaseline Efficacy (0–12/24 h). Plasma glucose levels (PGLs) were monitored for 12–24 h using a glucometer. Plasma insulin was quantified by ELISA at selected timepoints. The area under the curve (AUC0–12/24) was calculated to assess overall glycemic control."}},
  "data": [
    {"substance": "recombinant human insulin [SC insulin]", "values": [
      {"measurement": "IVGTT plasma insulin", "setting": "[1]", "result": "5.4 ± 0.4", "unit": "ng/mL"},
      {"measurement": "IPGTT peak glycemia (maximal group mean at 30 min)", "setting": "[2]", "result": "272 ± 17", "unit": "mg/dL"},
      {"measurement": "AST", "setting": "[3]", "result": "48.2 ± 6.7", "unit": "U·L⁻¹"},
      {"measurement": "Creatinine", "setting": "[3]", "result": "39.4 ± 2.5", "unit": "µmol/L"},
      {"measurement": "AUC0–12h", "setting": "[4]", "result": "192 ± 11", "unit": "ng·h/mL"},
      {"measurement": "Tmax", "setting": "[4]", "result": "1.0 ± 0.1", "unit": "h"},
      {"measurement": "t½ (terminal half-life)", "setting": "[4]", "result": "2.64 ± 0.12", "unit": "h"},
      {"measurement": "Plasma glucose (PGL)", "setting": "[5]; 0 h, dose-matched SC vs patch (nominal 0.05–0.20 IU)", "result": "344 ± 16", "unit": "mg/dL"},
      {"measurement": "Plasma glucose (PGL)", "setting": "[5]; 12 h, dose-matched", "result": "220 ± 30", "unit": "mg/dL"}
    ]}
  ]
}
